Source: patent US20210196795A1 (LAURANTIS PHARMA, published 2021)

Assays:
[1] = molecular target: human CCBE1 fused to a V5 tag (human) (UniProt Q6UXH8); assay: cell-based or functional assay
[2] = molecular target: T1, uncleaved full-length VEGF-C (58 kDa precursor) (Homo sapiens (Human), UniProt P49767 32-419); assay: Strep-Tactin pull-down of mixed 293T conditioned media (CCBE1-strepIII and full-length VEGF-C, 10 min at RT), Western blot with anti-CCBE1 antibody and anti-VEGF-C antiserum
T1 construct: Made by transfected 293T cells from the mammalian VEGF-C construct of Joukov et al 1997; also called VEGF-C precursor; prepro-VEGF-C
T1 sequence: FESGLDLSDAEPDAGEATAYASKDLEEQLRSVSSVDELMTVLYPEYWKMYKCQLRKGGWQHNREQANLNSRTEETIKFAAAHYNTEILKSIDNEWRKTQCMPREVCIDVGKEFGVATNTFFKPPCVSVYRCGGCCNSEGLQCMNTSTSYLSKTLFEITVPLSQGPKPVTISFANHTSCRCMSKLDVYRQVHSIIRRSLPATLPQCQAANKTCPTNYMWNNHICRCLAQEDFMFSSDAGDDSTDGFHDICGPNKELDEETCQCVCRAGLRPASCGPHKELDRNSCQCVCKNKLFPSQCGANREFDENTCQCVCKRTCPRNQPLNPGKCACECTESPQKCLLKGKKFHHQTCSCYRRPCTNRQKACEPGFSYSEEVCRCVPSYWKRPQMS
Description: Co-immunoprecipitation analysis of strep-tagged CCBE1. […] Mixed media were incubated for 10 min at RT before being applied to the pull-down.

## VEGF-C C-terminal propeptide, hexahistidine-tagged (from UniProt P49767 228-419)
[1]
  inhibition of VEGF-C processing: 79%

## VEGF-C N-terminal propeptide, hexahistidine-tagged (from UniProt P49767 32-111)
[1]
  inhibition of VEGF-C processing: 43%

B1: CCBE1-strepIII (human CCBE1 with StrepIII-tag) (other)
chain: YREEPEDGDREICSESKIATTKYPCLKSSGELTTCYRKKCCKGYKFVLGQCIPEDYDVCAEAPCEQQCTDNFGRVLCTCYPGYRYDRERHRKREKPYCLDIDECASSNGTLCAHICINTLGSYRCECREGYIREDDGKTCTRGDKYPNDTGHEKSENMVKAGTCCATCKEFYQMKQTVLQLKQKIALLPNNAADLGKYITGDKVLASNTYLPGPPGLPGGQGPPGSPGPKGSPGFPGMPGPPGQPGPRGSMGPMGPSPDLSHIKQGRRGPVGPPGAPGRDGSKGERGAPGPRGSPGPPGSFDFLLLMLADIRNDITELQEKVFGHRTHSSAEEFPLPQEFPSYPEAMDLGSGDDHPRRTETRDLRAPRDFYP
notes: Secreted into 293T conditioned medium; also called strep-tagged CCBE1; not shown: StrepIII-tag (Junttila et al 2005) inserted immediately after the CCBE1 CDS
[2]
  binding result: no binding
